From patent US20240392013A1 (STELEXIS THERAPEUTICS, published 2024)

T1: recombinant human IL1RAP protein, extracellular domain His-tagged (Sino Biological, Cat #10121-H08H) (human, UniProt Q9NPH3 21-367)
T1 construct: extracellular domain; Bought protein; The Octet analyte is printed as huIL1RAP-His (Sino Biological, lot MB08MA1301) without a catalogue number; also called huIL1RAP-His; hIL1RAP; not shown: His tag
T1 sequence (looked up): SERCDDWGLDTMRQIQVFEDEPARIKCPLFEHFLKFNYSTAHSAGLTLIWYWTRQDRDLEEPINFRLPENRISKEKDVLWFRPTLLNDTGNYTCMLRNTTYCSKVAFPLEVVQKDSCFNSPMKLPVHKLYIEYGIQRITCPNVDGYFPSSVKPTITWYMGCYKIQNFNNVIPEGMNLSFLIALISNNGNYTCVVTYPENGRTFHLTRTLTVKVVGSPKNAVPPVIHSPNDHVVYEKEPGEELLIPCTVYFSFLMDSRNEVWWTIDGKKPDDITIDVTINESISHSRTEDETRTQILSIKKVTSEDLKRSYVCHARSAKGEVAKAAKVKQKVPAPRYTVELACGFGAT

T2: IL1RAP on HEK-Blue IL1β / HEK-Blue IL33 reporter cells (UniProt Q9NPH3 21-570, limits assumed)
T2 sequence (looked up): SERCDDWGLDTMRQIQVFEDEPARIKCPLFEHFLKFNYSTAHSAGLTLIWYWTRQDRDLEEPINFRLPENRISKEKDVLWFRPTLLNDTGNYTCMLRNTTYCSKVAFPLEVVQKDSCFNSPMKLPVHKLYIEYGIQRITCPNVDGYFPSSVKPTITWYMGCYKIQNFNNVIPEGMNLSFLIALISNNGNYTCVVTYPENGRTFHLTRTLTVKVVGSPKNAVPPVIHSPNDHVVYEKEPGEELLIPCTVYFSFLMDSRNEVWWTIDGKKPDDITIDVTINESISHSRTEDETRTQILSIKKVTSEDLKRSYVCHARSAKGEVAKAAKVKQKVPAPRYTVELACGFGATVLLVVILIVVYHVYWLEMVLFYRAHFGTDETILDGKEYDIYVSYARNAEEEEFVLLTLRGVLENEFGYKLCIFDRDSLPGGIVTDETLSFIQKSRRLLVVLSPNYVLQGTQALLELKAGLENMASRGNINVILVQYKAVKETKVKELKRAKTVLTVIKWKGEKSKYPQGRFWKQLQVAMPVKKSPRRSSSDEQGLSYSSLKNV

T3: recombinant mouse IL1RAP protein (Sino Biological, Cat #52657-M08H) (mouse, UniProt Q61730 21-359)
T3 construct: Bought protein
T3 sequence (looked up): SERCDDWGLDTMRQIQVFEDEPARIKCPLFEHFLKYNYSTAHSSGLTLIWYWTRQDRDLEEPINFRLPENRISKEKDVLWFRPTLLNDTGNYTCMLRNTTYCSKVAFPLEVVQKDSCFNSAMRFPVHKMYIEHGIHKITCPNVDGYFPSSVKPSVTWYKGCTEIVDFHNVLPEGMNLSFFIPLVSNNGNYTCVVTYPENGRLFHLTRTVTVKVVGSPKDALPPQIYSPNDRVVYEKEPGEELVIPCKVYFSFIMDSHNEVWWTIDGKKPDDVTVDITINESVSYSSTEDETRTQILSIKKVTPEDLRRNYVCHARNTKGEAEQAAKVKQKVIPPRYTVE

T4: cyIL1RAP-His (Lake Pharma) (cynomolgus monkey, UniProt A0A2K5X5J5 21-367)
T4 construct: Bought protein (Lake Pharma, lot 16205819371); also called cynomolgus IL1RAP; monkey IL1RAP; not shown: His tag
T4 sequence: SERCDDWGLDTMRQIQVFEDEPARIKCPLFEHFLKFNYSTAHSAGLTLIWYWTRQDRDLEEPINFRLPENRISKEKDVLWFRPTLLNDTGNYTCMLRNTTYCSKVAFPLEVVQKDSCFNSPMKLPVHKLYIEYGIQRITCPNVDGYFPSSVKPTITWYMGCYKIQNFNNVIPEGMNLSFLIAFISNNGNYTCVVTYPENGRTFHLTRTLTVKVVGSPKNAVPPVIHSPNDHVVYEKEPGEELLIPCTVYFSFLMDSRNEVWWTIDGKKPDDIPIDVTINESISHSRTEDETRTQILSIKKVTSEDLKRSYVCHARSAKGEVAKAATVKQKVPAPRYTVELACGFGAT


Columns and labels:
[1] = target: T1, recombinant human IL1RAP protein, …; test: Octet BLI; mAb captured on anti-mouse IgG Fc sensor; huIL1RAP-His analyte
Procedure: (§1) Antibodies were diluted in kinetics buffer (0.1% BSA, 0.02% Tween-20 and 0.05% NaN₃ in PBS) and loaded onto 16 channel anti-mouse IgG Fc capture sensors (AMC, Cat #2001073; Sartorius, Göttingen, Germany). Human, huIL1RAP-His (Sino Biological, lot: MB08MA1301), and monkey, cyIL1RAP-His (Lake Pharma, NY, USA; lot:16205819371) proteins were titrated starting from the highest concentration of 100 nM and followed by 50 nM and 25 nM. Purified antibodies were loaded at 5 μg/ml in kinetics buffer. The experimental parameters selected to determine the kinetic constants were Baseline for 60 s, Loading of antibody to sensor for 180 s, Association of analyte to antibody for 120 s, Dissociation for 1200 s and Regeneration in 10 mM Glycine pH 1.7 for 4×30 s.
(§2) Regeneration cycle tracking was selected for 12 cycles. Binding to human and cynomolgus IL1RAP was measured and KD (M) kinetics were calculated. Also, the disassociation rate (Kdis) (1/s) and association rate (Kon) (1/Ms) kinetics were calculated (data not shown).

[2] = target: T2, IL1RAP on HEK-Blue IL1β / HEK-Blue IL33 …; test: cell-based or functional assay
[3] = target: T2, IL1RAP on HEK-Blue IL1β / HEK-Blue IL33 …; test: cell-based or functional assay; remark: listed apart in the source
[4] = target: T3, recombinant mouse IL1RAP protein (Sino …); test: cell-free ELISA, mouse IL1RAP coated; data not shown
Procedure: Recombinant human or mouse IL1RAP proteins (Sino Biological, Beijing, China; Cat #10121-H08H and Sino Biological, Cat #52657-M08H respectively) were diluted in PBS, pH 7.4 at concentration of 1 μg/ml, coated on high-binding 384-well clear plates and incubated overnight at 4° C. Following, plates were washed 3× with 0.05% Tween-20 in PBS, pH 7.5 and then blocked with 1% BSA in PBS for 1 hour at room temperature. After 3× washes, wells were incubated with each antibody at the highest concentration of 100 nM followed by seven serial half log dilutions (in 1% BSA and 0.05% Tween-20 in PBS) for 1 hour at room temperature. Plates were then washed 3× and incubated with […] detection antibody (Medna, TX, USA; Cat #D8212, 0.5 μg/ml diluted in 0.02% Tween-20 in PBS). After 5× washes, Supersignal ELISA Pico substrate (Thermofisher, MA, USA; Cat #37069) was applied to wells and chemiluminescent signal was read on Sprectramax L for 200 ms/well. Similarly, detection with specific κ and λ antibodies was conducted to define light chain isotyping.

[5] = target: T4, cyIL1RAP-His (Lake Pharma); test: Octet BLI; mAb captured on anti-mouse IgG Fc sensor; cyIL1RAP-His analyte
Procedure: as §1, §2

Binder | Kd [1] [nM] | Response [1] | koff [1] [s⁻¹] | kon [1] [M⁻¹ s⁻¹] | IC50, HEK-BlueIL1β NFκB Reporter Assay [2] | Max % Inhibition at 200 nM, HEK-BlueIL1β NFκB Reporter Assay [2] [%] | IC50, HEK-BlueIL33 NFκB Reporter Assay [3] | Max % Inhibition at 200 nM, HEK-BlueIL33 NFκB Reporter Assay [3] [%] | binding result [4] | Kd [5] [nM] | Response [5] | koff [5] [s⁻¹] | kon [5] [M⁻¹ s⁻¹]
STLX2017 (antibody, V domains shown, Purified from hybridoma of immunized Alivamab mice; intact IgG; captured on anti-mouse IgG Fc sensors in Octet; kappa light chain; also called 74804_17E20A) VH: EVQLVQSGAEVKKPGESLKISCKGSGYSFTSYWIGWVRQMPGKGLEWMGIIWPGDSDTRYSPSFQGQVTISADKSVNTAYLQWISLKASDTAIYYCARSSGGTAMDVWGQGTTVTVSS VL: not shown | 0.83 | 0.17 | 0.000348 | 420000 | 8.19e-10 M (implied; unit not printed) | 101 | 4.82e-09 M (implied; unit not printed) | 80 | no binding (tested: 100 nM) | 0.739 | 0.192 | 0.000259 | 351000
STLX2018 (antibody, V domains shown, Purified from hybridoma of immunized Alivamab mice; intact IgG; captured on anti-mouse IgG Fc sensors in Octet; kappa light chain; also called 74804_18L05A) VH: QVQLVQSGAEVKKPGASVKVSCKTSGYTFTSCCMHWVRQAPGQGLEWMGIINPSVGSTSYAQKFQGIVTMTRDTSTSTVYMELSSLRSEDTAVYYCAVDSSGSRYYYGMDVWGQGTTVTVSS VL: EIVMTQSPATLSVSPGERATLSCRASQSVRSNLAWYQQRPGQAPRLLIYGTSTRATGIPARFSGSGSGTEFTLTISSLQSEDFAVYYCQQYNYWPYTFGQGTKLEIK | 1.62 | 0.17 | 0.00037 | 228000 | 1.73e-09 M (implied; unit not printed) | 99 | 4.81e-09 M (implied; unit not printed) | 93 | no binding (tested: 100 nM) | 4.32 | 0.168 | 0.000954 | 221000
STLX2044 (antibody, V domains shown, Purified from hybridoma of immunized Alivamab mice; intact IgG; captured on anti-mouse IgG Fc sensors in Octet; lambda light chain; also called 74804_44J14A) VH: QVQLQESGPGLVKPSETLSLTCTVSGGSVFSYFWNWIRQPPVKGLEWIGYIDHSGGTNYNPSLKSRVTMSVDTSKNQFSLKLSSVTAADTAVYYCAREGLHDAFDIWGQGTLVTVSS VL: not shown | 1.23 | 0.268 | 0.000684 | 558000 | 7.92e-10 M (implied; unit not printed) | 98 | 8.12e-09 M (implied; unit not printed) | 73 | no binding (tested: 100 nM) | 1.68 | 0.223 | 0.00206 | 1.23e+06
STLX2001N (antibody, V domains shown, Purified from hybridoma of immunized Alivamab mice; intact IgG; captured on anti-mouse IgG Fc sensors in Octet; kappa light chain; also called 74804_01N02A) VH: EVQLVQSGAEVKKPGESLKISCKGSGYSFTSYWIVWVRQMPGKGLEWMGFIYPGNSDTRYSPSFQGQVTISADQSISTAYLQWSSLKASDTATYYCARGGSYYLDYWGQGTLVTVSS VL: not shown | 0.803 | 0.308 | 0.000233 | 290000 | 1.72e-09 M (implied; unit not printed) | 101 | 1.7e-08 M (implied; unit not printed) | 87 | no binding (tested: 100 nM) | 1.23 | 0.342 | 0.000413 | 334000
STLX2030 (antibody, V domains shown, Purified from hybridoma of immunized Alivamab mice; intact IgG; captured on anti-mouse IgG Fc sensors in Octet; kappa light chain; also called 74804_30O16A) VH: QVQLVQSGAEVKRPGASVKVSCKASGYTFTGYYMHWVRQAPGQGLEWMGWINPYSGGTDYAQKFQDRVTMTRDTSISTAYMELSRLRSDDTAVYYCARSYYYYGMDVWGQGITVTVSS VL: not shown | 2.24 | 0.153 | 0.000359 | 160000 | 2.31e-09 M (implied; unit not printed) | 98 | 1.24e-08 M (implied; unit not printed) | 76 | no binding (tested: 100 nM) | 2.59 | 0.169 | 0.000369 | 143000
STLX2009 (antibody, V domains shown, Purified from hybridoma of immunized Alivamab mice; intact IgG; captured on anti-mouse IgG Fc sensors in Octet; kappa light chain; also called 74804_09H05A) VH: QVQLFQSGAEVKKPGASVKVSCKASGYTFTGYYVHWVRQAPGQGLEWMGWINPNSGGTDYAQKFQGRVTMTWDTSISTAYMELSRLRSDDTAVYYCARSYYYYGMDVWGQGTTVTVSS VL: not shown | 1.64 | 0.205 | 0.000272 | 166000 | 2e-09 M (implied; unit not printed) | 99 | 1.1e-08 M (implied; unit not printed) | 74 | no binding (tested: 100 nM) | 2.87 | 0.219 | 0.000408 | 142000
